From patent publication US20230183289A1 (ANPEP, published 2023)

The binders below were run against elastase (type I: derived from porcine pancreas, Sigma Aldrich) (porcine, UniProt P00772 27-266) (assay: cell-based or functional assay).
Chain of elastase (type I: derived from porcine pancreas, Sigma Aldrich) (P00772 27-266 limits assumed): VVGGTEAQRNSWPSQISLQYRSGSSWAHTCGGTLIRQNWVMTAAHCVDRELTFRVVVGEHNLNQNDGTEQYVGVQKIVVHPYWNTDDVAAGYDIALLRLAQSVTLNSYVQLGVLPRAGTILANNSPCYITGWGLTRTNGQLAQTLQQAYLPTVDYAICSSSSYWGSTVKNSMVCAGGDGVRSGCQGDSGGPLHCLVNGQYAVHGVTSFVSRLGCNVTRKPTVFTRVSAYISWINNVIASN

Elastase Inhibition Rate (%) | Binder
55.2 | GCFS [Sample 20 tetrapeptide GCFS]
58.3 | GSSG [Sample 19 tetrapeptide GSSG]
56 | GQLK [Sample 27 tetrapeptide GQLK]
69.7 | EGQL [Sample 30 tetrapeptide EGQL]
69.1 | FSSG [Sample 22 tetrapeptide FSSG]
49.5 | EVQW [Sample 42 tetrapeptide EVQW]
34.5 | GQDP [Sample 34 tetrapeptide GQDP]
72.3 | YLEQ [Sample 36 tetrapeptide YLEQ]
59.3 | TKGE [Sample 38 tetrapeptide TKGE]
55.6 | QMGQ [Sample 33 tetrapeptide QMGQ]
66.3 | EHQE [Sample 29 tetrapeptide EHQE]
79.3 | KHLE [Sample 28 tetrapeptide KHLE]
90.5 | ELPE [Sample 24 tetrapeptide ELPE]
72.3 | QQKQ [Sample 41 tetrapeptide QQKQ]
60.7 | VLLP [Sample 39 tetrapeptide VLLP]
73.2 | GQLE [Sample 23 tetrapeptide GQLE]
70.6 | LEVP [Sample 31 tetrapeptide LEVP]
60.5 | QLKY [Sample 35 tetrapeptide QLKY]
64 | PEEQ [Sample 32 tetrapeptide PEEQ]
47.4 | CFSS [Sample 21 tetrapeptide CFSS]
55.7 | VEHQ [Sample 40 tetrapeptide VEHQ]
78.2 | LELP [Sample 26 tetrapeptide LELP]

The remaining lines, values behind:

Binder | Elastase Inhibition Rate (%)
PPVD [Sample 4 tetrapeptide PPVD] | 72.5
GGSG [Sample 18 tetrapeptide GGSG] | 104
CAPQ [Sample 14 tetrapeptide CAPQ] | 77.2
PTPQ [Sample 3 tetrapeptide PTPQ] | 69.3
KTSG [Sample 7 tetrapeptide KTSG] | 44.5
SQQV [Sample 12 tetrapeptide SQQV] | 49.3
YGGG [Sample 16 tetrapeptide YGGG] | 67.1
QKKQ [Sample 2 tetrapeptide QKKQ] | 88.7
TQTS [Sample 13 tetrapeptide TQTS] | 59
SGGS [Sample 8 tetrapeptide SGGS] | 49.6
MSYQ [Sample 1 tetrapeptide MSYQ] | 79.4
SSGG [Sample 17 tetrapeptide SSGG] | 77
GQVS [Sample 10 tetrapeptide GQVS] | 33.9
GYVS [Sample 11 tetrapeptide GYVS] | 78.5
GSGY [Sample 9 tetrapeptide GSGY] | 56.3
VKTS [Sample 6 tetrapeptide VKTS] | 66.3
DCVK [Sample 5 tetrapeptide DCVK] | 118
QPSY [Sample 15 tetrapeptide QPSY] | 63.5
